Data reported in patent US20140294898A1.
Positions of bridges follow the written chain, without caps; N, C: chain ends. Non-standard residues stand in square brackets, D forms with d. Phe(F5) = N[C@@H](Cc1c(F)c(F)c(F)c(F)c1F)C(=O)O; NMeF = CN[C@@H](Cc1ccccc1)C(=O)O; NMeNle = CCCC[C@H](NC)C(=O)O; Sar = CNCC(=O)O

Tests used:
human PD-L1 (human) = human PD-L1 (human) (UniProt Q9NZQ7); assay: cell binding assay (CBA), PE-labeled PD-1-Ig on cells over-expressing human PD-L1; cluster 3 = IC50 0.07431 to >10 uM or not done
Sequence of human PD-L1 (human) (Q9NZQ7 19-290): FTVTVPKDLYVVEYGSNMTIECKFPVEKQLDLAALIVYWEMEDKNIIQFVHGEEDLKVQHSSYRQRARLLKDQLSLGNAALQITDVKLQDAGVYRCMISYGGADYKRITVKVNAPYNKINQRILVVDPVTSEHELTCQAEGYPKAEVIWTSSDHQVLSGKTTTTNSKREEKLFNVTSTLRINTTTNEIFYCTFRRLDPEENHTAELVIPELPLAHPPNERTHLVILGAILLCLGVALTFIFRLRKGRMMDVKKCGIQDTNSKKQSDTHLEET

[1] = target: hPDL1(19-239)-TVMV-His (human) (UniProt Q9NZQ7); assay: HTRF competition of PD-1-Ig binding to PD-L1-His; cluster 3 = IC50 0.03045 to >10 uM or not done
Sequence of hPDL1(19-239)-TVMV-His (human) (Q9NZQ7 other isoform, or with tags, fused parts or gaps limits assumed): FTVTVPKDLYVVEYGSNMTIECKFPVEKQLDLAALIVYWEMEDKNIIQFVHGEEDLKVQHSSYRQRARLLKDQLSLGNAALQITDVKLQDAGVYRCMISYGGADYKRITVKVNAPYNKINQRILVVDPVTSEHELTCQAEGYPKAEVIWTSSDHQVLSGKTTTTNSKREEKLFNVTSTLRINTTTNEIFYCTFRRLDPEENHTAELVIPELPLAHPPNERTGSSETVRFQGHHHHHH

CBA IC50 cluster (human PD-L1 (human)): 3 cluster | HTRF IC50 cluster [1]: 3 cluster
B1: Example 3078 (peptide)
peptide: {CH2CO}-[Phe(F5)][NMeF][NMeNle][Sar]DV[NMeF]Y[Sar]WYLCG-NH2
modifications: thioether N-13
SMILES: CCCC[C@H]1C(=O)N(C)CC(=O)N[C@@H](CC(=O)O)C(=O)N[C@@H](C(C)C)C(=O)N(C)[C@@H](Cc2ccccc2)C(=O)N[C@@H](Cc2ccc(O)cc2)C(=O)N(C)CC(=O)N[C@@H](Cc2c[nH]c3ccccc23)C(=O)N[C@@H](Cc2ccc(O)cc2)C(=O)N[C@@H](CC(C)C)C(=O)N[C@H](C(=O)NCC(N)=O)CSCC(=O)N[C@@H](Cc2c(F)c(F)c(F)c(F)c2F)C(=O)N(C)[C@@H](Cc2ccccc2)C(=O)N1C
